# Source: patent US20220227882A1 (TRUSTEES OF TUFTS COLLEGE, published 2022)
# Tests used:
# [1] = molecular target: T1, E444A (Homo sapiens, UniProt P78325); assay: high-throughput flow cytometry, HEK293 cells with mutant ADAM8, high stringency; range in parentheses
# T1 construct: expressed on HEK293 cells; also called human ADAM8 point mutant E444A
# T1 sequence (ADAM8, looked up): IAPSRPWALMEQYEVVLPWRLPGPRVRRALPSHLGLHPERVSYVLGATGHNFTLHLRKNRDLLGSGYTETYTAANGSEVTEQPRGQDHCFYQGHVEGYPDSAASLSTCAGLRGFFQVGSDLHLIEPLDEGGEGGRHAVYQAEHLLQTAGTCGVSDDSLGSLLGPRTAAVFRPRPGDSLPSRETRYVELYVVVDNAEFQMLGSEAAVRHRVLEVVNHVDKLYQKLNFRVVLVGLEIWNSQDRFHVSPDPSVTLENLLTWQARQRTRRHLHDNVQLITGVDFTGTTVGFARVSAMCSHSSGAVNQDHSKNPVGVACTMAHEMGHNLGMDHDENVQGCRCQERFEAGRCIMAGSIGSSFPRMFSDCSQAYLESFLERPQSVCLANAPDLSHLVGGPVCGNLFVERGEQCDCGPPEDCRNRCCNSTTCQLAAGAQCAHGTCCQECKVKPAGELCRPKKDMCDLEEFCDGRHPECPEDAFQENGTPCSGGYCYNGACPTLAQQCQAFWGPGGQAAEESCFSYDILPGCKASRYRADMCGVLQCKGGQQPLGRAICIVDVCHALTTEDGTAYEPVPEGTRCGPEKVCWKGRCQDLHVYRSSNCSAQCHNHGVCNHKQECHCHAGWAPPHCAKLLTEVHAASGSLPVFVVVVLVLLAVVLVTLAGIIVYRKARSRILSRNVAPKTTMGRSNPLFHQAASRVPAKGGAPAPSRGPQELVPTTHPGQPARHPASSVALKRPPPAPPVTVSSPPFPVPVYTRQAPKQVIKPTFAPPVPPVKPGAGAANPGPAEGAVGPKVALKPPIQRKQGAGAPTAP
# How it was run: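 HEK293 cells expressing WT or alanine-mutant ADAM8 were stained for 60 min with ADP2 Fab (0.50 μg/ml) or ADP13 Fab (5.00 μg/ml) in PBS with 10% goat serum under high-stringency conditions. Detection used an Alexa Fluor 488 secondary, with mean cellular fluorescence measured by high-throughput flow cytometry in duplicate.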
# [2] = molecular target: T2, A462S (Homo sapiens, UniProt P78325); assay: high-throughput flow cytometry, HEK293 cells with mutant ADAM8, high stringency; range in parentheses; dotted box
# T2 construct: expressed on HEK293 cells; also called human ADAM8 point mutant A462S
# T2 sequence (ADAM8, looked up): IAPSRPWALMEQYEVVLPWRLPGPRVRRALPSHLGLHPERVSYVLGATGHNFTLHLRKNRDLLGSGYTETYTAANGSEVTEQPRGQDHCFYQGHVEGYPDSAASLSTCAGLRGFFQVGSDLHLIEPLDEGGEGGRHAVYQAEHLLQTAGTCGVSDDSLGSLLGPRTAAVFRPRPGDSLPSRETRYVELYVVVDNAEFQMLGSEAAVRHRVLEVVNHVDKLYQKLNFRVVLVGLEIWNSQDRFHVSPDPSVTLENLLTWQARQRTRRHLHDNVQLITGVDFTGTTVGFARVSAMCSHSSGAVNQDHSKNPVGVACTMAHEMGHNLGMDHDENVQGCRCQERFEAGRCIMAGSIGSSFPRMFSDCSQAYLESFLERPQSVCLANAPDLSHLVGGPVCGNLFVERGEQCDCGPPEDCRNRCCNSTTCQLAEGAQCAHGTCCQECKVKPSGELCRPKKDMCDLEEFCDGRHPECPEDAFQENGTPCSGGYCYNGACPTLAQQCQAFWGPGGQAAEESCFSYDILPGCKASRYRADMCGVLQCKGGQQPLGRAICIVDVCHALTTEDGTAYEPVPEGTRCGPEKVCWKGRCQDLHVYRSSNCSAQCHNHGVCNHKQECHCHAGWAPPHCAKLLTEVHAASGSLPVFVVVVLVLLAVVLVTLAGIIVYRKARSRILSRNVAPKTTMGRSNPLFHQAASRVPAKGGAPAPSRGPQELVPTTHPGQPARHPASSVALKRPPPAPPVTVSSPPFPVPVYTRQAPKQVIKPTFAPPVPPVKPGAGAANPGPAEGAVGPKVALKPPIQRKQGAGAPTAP
# Description: A variety of experimental parameters were optimized for high-throughput flow cytometry including blocking buffer, and primary and secondary antibody concentrations, to identify the optimal conditions for screening. Through these studies ADP2 and ADP13 were determined to be high affinity binding antibodies.
# Thus, for these studies antigen-binding fragments (Fabs) of ADP2 and ADP13, which bind with lower affinity than the full antibody, were generated. In addition, higher binding stringency conditions were tested, such as increased pH, salinity, and temperature, and/or increased washing, to weaken binding sufficiently to allow identification of critical binding residues in flow cytometry. The final experimental flow cytometry conditions were: primary antibody incubation with ADP2 Fab (0.50 μg/ml), ADP13 Fab (5.00 μg/ml) and Control Ab (0.16 μg/ml) for 60 minutes in flow cytometry buffer containing 10% goat serum in PBS (Ca²⁺ and Mg²⁺ free). […] Samples were washed three times after primary antibody incubation and twice after secondary antibody incubation with PBS (Ca²⁺ and Mg′ free). Next, HEK293 cells expressing WT or mutated ADAM8 proteins or EV DNA were incubated with ADP2 or ADP13 Fabs or Control Ab at their optimal concentrations. Fab binding was detected using Alexa Fluor 488-conjugated secondary antibodies and mean cellular fluorescence determined using the Intellicyt iQue flow cytometry platform. […] This counter-screen strategy facilitates the exclusion of mutants that are locally misfolded or that have an expression defect. Binding of each test Fab to each mutant clone in the alanine scanning library was determined, in duplicate, by high-throughput flow cytometry.
binder,measurement,setting,value
"ADP13 Fab (Fab, V domains shown) VH: EVQLQQSGPEMVKPGTSVKISCKASGYTFTDYYINWVKQSHGKSLEWIGDISPNIGGATYNPKFKGKAILTVDKSARTAYMELRSLTSEDSAVYCCTRGGSSYPYFYAMDYWGQGTSVTVSS VL: DIVMSQSPSSLAVSVGEKVTMSCKSSQSLLYSSNQKKYLAWYQQKPGQSPKLLIYWASTRESGVPDRFTGSGSGTDFTLTISSVKAEDLAVYYCQQFYSYPYTFGGGTKLEINR",Binding Reactivity (% WT),[1],70.8 % WT
same,Binding Reactivity (% WT),[2],24.7 % WT
